1 substance from article PMC7319273 can be followed below.

The target of experiment [1] is SARS-CoV-2 Spike protein extracellular domain (S-ECD), as used in ELISA and BLI (SARS-CoV-2) (UniProt P0DTC2).
Experiment [2] has the same target. As to the kind of experiment: BLI.

4A8 (human monoclonal antibody), sequence (VH): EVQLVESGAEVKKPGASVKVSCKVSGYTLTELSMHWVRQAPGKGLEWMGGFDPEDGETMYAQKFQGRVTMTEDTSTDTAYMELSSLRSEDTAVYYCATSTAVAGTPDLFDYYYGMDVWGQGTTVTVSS
4A8 (human monoclonal antibody), sequence (VL): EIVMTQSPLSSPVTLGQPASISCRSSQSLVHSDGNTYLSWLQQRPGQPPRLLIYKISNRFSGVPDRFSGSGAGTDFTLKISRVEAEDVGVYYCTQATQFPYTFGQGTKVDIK

As usually defined, the Kd is the free concentration of one partner at which half of the binding sites on the other are occupied at equilibrium, for simple one-to-one binding. In experiment [1], 4A8 (human monoclonal antibody) displayed a neutralization of authentic SARS-CoV-2 in Vero-E6 cells, EC50 of 0.61 µg/mL. In addition, in experiment [2], the Kd is less than 2.14 nM.
